We go through 41 sequences from the nanobody polyreactivity screen of Harvey et al. (2022).

The series is described as follows: yeast display, Sf9 membrane polyspecificity reagent, FACS + sequencing; frameworks hold sequencing errors. The method, boiled down:
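Sorting gates, low and high (top ~1%), were placed on anti-HA fluorescence to track expression and on streptavidin fluorescence to track reagent binding. A clone's polyreactivity label is taken from the gate it came out of. The reagent was 10% biotinylated, detergent-solubilized Sf9 membrane, applied for 1 hour at 4 °C to galactose-induced yeast display cells.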
With “QVQLVESGGGLVQAGGSLRLSCAASGSTFGYYVMGWSRQAPGKERELVAAISWGGGSTYYADSVKGRFTISRDNAQNTVYLQMNSLNPEDTAVYYCNLRDQWWGYDYWGQGTQVTVSS”, the “polyreactivity (PSR sort gate)” value is reported as “low polyreactivity”.
As for “QVQLVESGVGLVQAGGSLRLSCSASGIIFDDYAMGWYRQAPGKERELVAAISRRGGSTYYADSVKGRFTISRDNAKNTVYLQMNSLKPEDTAVYYCAATTRTYSLYNYWGQGTHVTVSS”, the entry is “high polyreactivity”; as for “QVQLEESGGGLVQAGGSLRLSCAASGSTFINNAMGWYRQPPGKERELVAAISSGGSTYYADSVKGRFTISRDNAKNTVYLEMNSLKPEDTAVYYCAAEFVETKYPEMDYWGQGTQVTVSS”, “low polyreactivity”; as for “QVQLVESGGGLVQAGGSLRLSCAASGSTFDVYAMGWYRQAPGKERELVAAITWIGGSTYYADSVKGRFTISRDNAKNTVYLQMNSLKPEDTAVYYCARHDYGWVDYWGQGTQVTVSS”, “high polyreactivity”.
As for “QVQLVESGGGLVQAGGSLRLSCAASGRTFRYYAMGWYRQAPGKERELVASITSGGRTYYADSVKGRFTISRDNAKNTVYLQMNSLKPEDTAVYYCAADRFGIGGKRGNDYWGQGTQVTVSS”, the entry is “high polyreactivity”.
As for “QVQLVESGGGLVQAGGSLRLSCAASGSTFVSNAMGWYRQAPGKERELVATITTSGGSTYYADSVKGRFTISRDNAKNTVYLQMNSLKPEDTAVYYCNADYDFNFIDWVYFLYDYWGQGTQVTVSS”, the entry is “low polyreactivity”; as for “QVQLVESGGGLVQAGGSLRLSCAASGSTLSLYAMGWYRQAPGKERELVAAITSSGGTYYADSVKGRFTISRDNAKNTVYLQMNGLKPEDTAVYYCAAQSYSRMDYWGQGTQVTVSS”, “high polyreactivity”.
“QVQLVESGGGLVQAGGSLSLSCAASGSIFFNNAMGWYRQAPGKERELVAAITWRDGSTNYADSVKGRFTISRDIAKNTVYLQMNSLKPEDTAVYYCNKVKEFGNVWFLPKYNYWGQGTQVTVSS”: the “polyreactivity (PSR sort gate)” value is given as “low polyreactivity”.
With “QVQLVESGVGLVQAGGSLRLSCAASGFIFGYYTMGWYRQAPGNERELVAAITYRGGSTYYAYSVKGRFTISRDNAKNTVYLQMNRLKPEDTAVYYCAIRTNVGHDSWGQGTEVTVSS”, the “polyreactivity (PSR sort gate)” value was “high polyreactivity”.
On to “QVQLVESGGGLVKAGGSLRLSCAASGRNFNYYAMGWYTQAPGKERELVAAIRSGGSTYYADSVKGRFTISRDNAKYTVYFQMNSLKPEDTAVYYCAKSMSSDAYDSWGQGTKVTVSS”, for which the “polyreactivity (PSR sort gate)” value was “low polyreactivity”.
The same measure for “QVQLVESGGGLVQAGGSLRLSCAASGFTFSPNAMGWYRQAPGKERELVAAIDWSGDRTYYADSVKGRFTISRDNAKNTVYLQMNSLKPEDTAVEYCNVVRRSPGDYSYYYWGQGTQVTVSS”: “low polyreactivity”.
The same measure for “QVQLVESGGGLVQAGGSLRLSCAASGYTFRGNAMGWYRQAPGKERELVAAISIGGTTYYADSVKGRFTISRDNAKNTVYLQMNSLKPVDTAVYYCARRGLAFLFDYWGQGTQVTVSS”: “low polyreactivity”; for “QVQLVESGGGLVQAGGSLRLSCAASGSTFSYYAMGWYRQAPGKERELVAVISWSGGSTYYADSVKGRFTISRDNAKNTVYLQMNSLKPEDTAVYYCAARGYVRWYNRYDYWGQGTQVTVSS”: “low polyreactivity”.
The same measure for “QVQLVESAGGLVQAGGSLRLSCAASGSTYTSYAMGWYRQAPGKERELVAAITRNGGTTYYADSVKGRFTLSRDNAKNTVYLQMNSLKPEDTAVYYCNAPHYYYITSDRRFDYWGQGTQVTVSS”: “low polyreactivity”; for “QVQLQERAAWCRRAGSLRLSCAASGNISDYYFMGWYRQAPGKERELVAAIAPGSNTYYADSVKGRFTISRDNAKNTVYLQMNSLKPEDTAVCFCGANSTQYTWFDYWGQGTQVPVSS”: “low polyreactivity”; for “QVQLVESGGGLVQAGGSLRLSCAASGSIFAKNAMGWYRPAPGTERELVAGIDFSGGSTYYADSVKGRFTISGDNAKNTVYLQMNSLKAEDTAVYYCAADWAYKYELDYWGQGNQVTVSS”: “low polyreactivity”.
On to “QVQLVESGGGLVQAGGSLRLSCAASGRIFEINARGWYRQAPGKERELVAAITRSGGSTYYADSVKGRFTISRDNAKNTVYFQMNSLTPEDTAVYYCAARGRYWYSRYYSWGQGTQVTVSS”, for which the “polyreactivity (PSR sort gate)” value was “high polyreactivity”.
With “QVQLVESGGGLVQAGGSLRLSCAASGRTFVIYARGWYRQAPGKEWALVAAINWRGGSTYYADSVKGRFTISRDNAKNTVYLQMNSLKPEDTAVYYCAADTGWWWLYDYWGQGTQVTVSS”, the “polyreactivity (PSR sort gate)” value was “high polyreactivity”.
As for “QVQLVESGGGLVQAGGSLRLSCAASGSIFAIYVMGWYRQAPGKERELVAAITWSGGSTYYADSVKGRFTISRDNAKNTVDLQMNSLKPEDTAVYYCAARVLRVRTVTTTWGQGTQVTLSS”, the entry is “high polyreactivity”; as for “QVQLVESGGGLVQAGRSLRLSCAASGSTFPWYTMGWYRQAPGKERELVAAIDGSAGDTYYADSVKGRFTISRDNAKNTVYLQMNSLKPEDTAVYYCATRTSRWGYLHYDYWGQGTQVTVSS”, “low polyreactivity”; as for “QVQLVESGGGLVQAGGSLRLSCAASGSIFPPYAMGWYRQAPGKERELVAAIDWGGSSTYYADSVKGRFTISRDNAKNTVYLQMNSLKPEDTAVYYCAAEVVHGYYLYEYWGQGTQVTVSS”, “high polyreactivity”.
Regarding “QVQLVETGGGLVQAGGSLRLSCAASGRTFRAYAMGWYRQAPGKEMELVAAITSGGSTKYADSVNGRFTISRDNAKNTVYLQMTRLKPEDTAVYYCAATLALESYIYDYWGQGTQVTVSS”, the “polyreactivity (PSR sort gate)” value is “high polyreactivity”.
For the sequence “QVQLVESGGGLVQAGGSLRLSCAASGIIFLLYSMGWYRQAPGKERELVAAITNGGRTNYADSVKGRFTISRDNAKNTVYLQMNSLKPEDTAVYYCNAVLSVPDYTLFDYWGQGTQVTVSS”, the “polyreactivity (PSR sort gate)” value is given as “low polyreactivity”.
Regarding “QVQLQESGGGLVQAGGSLRLSCAASGSNFDTPTMGWYRQAPGKERELVASIAYDDNTYYADSVKGRFTISRYNAKNTVYLQMNSLKPGDTAVYYCAVTDRIYYYFVYWGQGTRVTVSS”, the “polyreactivity (PSR sort gate)” value was “high polyreactivity”.
As for “QVQLVESGGGLVQAGGSLRLSCAASGFTIPYKAMGWYRHAPGKERELVAAISRSGTRTYYADSVKGRFTISRDNAKNTVYIQMNSLKPEDTAVYYCAKDTIGGASPHYYWGQGTQVTVSS”, the entry is “high polyreactivity”; as for “QVQLVESGGGLVQAGGSLRLSCAASGFIFRSYAMGWYRQAPGKERELVAAISSSGGRTYYADSVKGRFTISRDNAKNTVYLQMNSLKPEDTAVYYCATSLYTDNSWDNYWGQGTQVTVSS”, “high polyreactivity”; as for “QVQLVESGGGLVQAGGSLRLSCAASGSTFGLNVMGWYRQAPGKEREFVAGISRSGGRTYYADSVKGRFTISRDNAKNTVYLQMNSLKPEDTAVYYRAADYWTGITPDAIGDYWGQGTQVTVSS”, “low polyreactivity”.
The same measure for “QVQLVESRGGLVQAGGSLRLSCAASGLIFRHYAMGWYRQAPGKERELVAAITGSGSTYYADSVKGRFTISRDNAKNTVYFQMNSLKPEDTAVDYCAATVYSSGAMDYWGQGTQVTVSS”: “low polyreactivity”; for “QVKLVESGAGLVQAGGSLRLSCAASGITFYWYAIGWYRPAPGKEMELVADITSSGSSTYYADSVKGRFTISRDNAKNTVYLQMNSLKPEDTAVYYCNARPGRRSLRSRTYDYWGQGTQVTVSS”: “high polyreactivity”; for “QVQLVESGGGLVQAGGSLRLSCAASGSIFVFYAMGWYRQAPGKERELVAAINDGGSTHYADSVKGRFTISRDNAKNTVYLQMNSLKPEDTAVYYCAAEYVWYRYPDYWGAYDYWGQGTQVTVSS”: “low polyreactivity”.
As to “QVQLVESGGGLVQAGGSLRLSCAASGSIFAYYAMGWYRQAPGKESELVARITYSTDGTYYADSVKGRFTISRDNAKNTVYLQMNSLKPEDTAVYYCAVDTWWGFKRYKFDYWGQGTQVTVSS”, the “polyreactivity (PSR sort gate)” value was “low polyreactivity”.
The same measure for “QVQLVESGGGLFQAGGSLRLSCAASGLTFYRYVMGWYRQAPGKERELVAAISDSGGSTYYADSVKGRFTISRDNAKNTVYLQMNSLKPEDTAVYYCAAEAPSFVYYSRYDYWGQGTQVTVSS”: “high polyreactivity”; for “QVQLVESGGGLVQAGCSLRLSCAASGSIFSQSAMGWYRQAPGKERELVAAISARGTSTYYADSVKGRFTISRDNAKNTVYLQMNSLKPEDTAVYYCNTVRPYSSSSSRYYYWGQGTQVTVSS”: “high polyreactivity”.
The same measure for “QVQLVESGGGLVQAGGSLRLSCAASGSTFSGNAMGWYRQAPGKEWELGATITITGGSTYYADSVKGRFTISRDNAKNTVYLQMNSLKPEDTAVYYCAKDYYAYSDYDYWGQGTQVTVSS”: “low polyreactivity”.
As for “QVQLVESGGGLVQEGGSLRLRCAASGSIFYRYAMGWYRQAPGKERELVAAISSTGSTYYADSVKGRFTISRDNAKNTVYLQMNSLKPEDTAVYYCAARQGYRSYRRYDYWGQGTQVTVSS”, the entry is “high polyreactivity”; as for “QVQLVESGGGLVQAGGSLRLSCAASVITVRSYAMGWYRQAPGKERELVARISTDADTYYADSVKGRFTISRDNAKITVYLHMNSLKPEDTAVYYCAAEDYWDFDYWGQGTQVTVSS”, “low polyreactivity”.
With “QVQLVESGGGLVQAGGSLRLSCAASGFIFVSNAMGWYRQAPGKERELVAAISKSGARTSYADSVKGRFTISRDNAKNTVYLQMNSLKPEDTAVYYCAASGSGVGIYYKRGNYWGQGTQVTVSS”, the “polyreactivity (PSR sort gate)” value is “high polyreactivity”.
As for “QVQLVESGGGLVQAGGSLRLSCAASGLTFYHVNAMGWYRQAPGKERELVAGISTRGGSTYYADSVKGRFTISRDNAKNTVYLQMNSLKPEDTAVYYCAAYGSAAQKYPYDRPYRYGYWGQGTQVTVSS”, the entry is “high polyreactivity”; as for “QVQLVESGGGLVQAGGSLRLSCAASGSTLRGYVMGWYRQAPGTERELVAAITQRAGSTYYADSVKGRFTISRDNAKNTVYLQMNSLKPEDTAVYYCRRFYFGKYDYWGQGTQVTVSS”, “high polyreactivity”.
The same measure for “QVQLVESGGGLVEAGGSLRLICAASGFIFLSNGMGWYRQGPGKERELVAAISSSGGSTYYADSVKGRFTISRDNAKNTVYLQMNSLKPEDTAVYYCAAEQYSVYETGSYDYWGQGTQVTVSS”: “low polyreactivity”; for “QVQLVESGGGLVQAGGSLRLSCAASGSIFNYNAMGWYRQAPGKERELVATINKRAGRTYYADSVKGRFTISRDNAKNTVYLQMNSLKPEDTAVYYCAALHSGRVQNFDYWGQGTQVTVSS”: “high polyreactivity”.
